For two molecules, IC50 results are on record in patent publication US20040018172A1 (US Dept. of Health and Human Services, published 2004).

Test [1] has as its target T1, ^125I-IFN-α2b binding site on Daudi and WISH cells (human).
T1 chain 1: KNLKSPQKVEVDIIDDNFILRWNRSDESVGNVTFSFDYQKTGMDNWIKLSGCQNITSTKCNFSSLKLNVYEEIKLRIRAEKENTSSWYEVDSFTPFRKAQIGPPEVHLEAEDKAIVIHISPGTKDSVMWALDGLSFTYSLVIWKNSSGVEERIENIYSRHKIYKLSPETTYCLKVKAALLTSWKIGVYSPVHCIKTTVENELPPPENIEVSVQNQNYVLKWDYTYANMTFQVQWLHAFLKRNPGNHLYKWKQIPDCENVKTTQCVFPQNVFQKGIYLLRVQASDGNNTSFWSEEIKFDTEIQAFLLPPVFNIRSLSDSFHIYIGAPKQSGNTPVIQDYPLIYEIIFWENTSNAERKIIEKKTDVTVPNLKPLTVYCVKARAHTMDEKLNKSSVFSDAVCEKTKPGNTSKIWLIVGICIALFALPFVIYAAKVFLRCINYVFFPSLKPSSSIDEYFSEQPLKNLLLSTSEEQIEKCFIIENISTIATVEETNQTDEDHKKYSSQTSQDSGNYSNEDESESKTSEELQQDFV
T1 chain 2: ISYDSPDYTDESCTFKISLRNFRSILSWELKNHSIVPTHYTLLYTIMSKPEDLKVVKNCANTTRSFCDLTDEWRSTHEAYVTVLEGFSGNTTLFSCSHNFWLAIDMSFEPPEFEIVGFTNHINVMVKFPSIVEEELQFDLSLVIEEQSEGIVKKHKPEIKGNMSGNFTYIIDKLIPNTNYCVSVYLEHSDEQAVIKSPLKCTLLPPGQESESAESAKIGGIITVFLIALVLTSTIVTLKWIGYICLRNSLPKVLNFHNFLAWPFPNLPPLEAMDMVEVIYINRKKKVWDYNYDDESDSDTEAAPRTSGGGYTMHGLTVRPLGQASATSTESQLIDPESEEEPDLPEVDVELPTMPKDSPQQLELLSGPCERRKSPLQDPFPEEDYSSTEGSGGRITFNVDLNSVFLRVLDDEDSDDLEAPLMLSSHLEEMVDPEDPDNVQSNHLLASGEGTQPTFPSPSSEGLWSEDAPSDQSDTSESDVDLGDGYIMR
Put plainly: displacement of ^125I-IFN-α2b from WISH cells (competitor: ^125I-IFN-α2b).

Test [2] has as its target T1, ^125I-IFN-α2b binding site on Daudi and …. Nature of the test: displacement of ^125I-IFN-α2b from Daudi cells (competitor: ^125I-IFN-α2b).

B1: IFN-α21a (ligand, human, UniProt P01568 24-189, looked up)
chain: CDLPQTHSLGNRRALILLAQMGRISPFSCLKDRHDFGFPQEEFDGNQFQKAQAISVLHEMIQQTFNLFSTKDSSATWEQSLLEKFSTELNQQLNDLEACVIQEVGVEETPLMNVDSILAVKKYFQRITLYLTEKKYSPCAWEVVRAEIMRSFSLSKIFQERLRRKE
notes: mature; Recombinant, made in E. coli from pQE30/A21 and purified on Ni-NTA, so an amino-terminal hexa-histidine tag may be present; also called interferon-α21a; IFNA21
The IC50 is the midpoint of a concentration-inhibition curve. For the molecule B1, the IC50 was above 0.2 µg/mL in test [1] and above 0.4 µg/mL in test [2].

B2: HY-2: IFN-α21a(1-95)/IFN-α2c(96-166) (ligand)
chain: CDLPQTHSLGNRRALILLAQMGRISPFSCLKDRHDFGFPQEEFDGNQFQKAQAISVLHEMIQQTFNLFSTKDSSATWEQSLLEKFSTELNQQLNDLEACVIQGVGVTETPLMKEDSILAVRKYFQRITLYLKEKKYSPCAWEVVRAEIMRSFSLSTNLQESLRSKE
notes: Expressed from pQE30 in E. coli and purified on Ni-NTA, so an amino-terminal hexa-histidine tag may be present; also called AF085804
Regarding B2, the 50% inhibitory concentration (IC50) is above 0.2 µg/mL in test [1] and above 0.4 µg/mL in test [2].
